Measurements published in IntAct's records for PubMed 11854419.

B1: COP9 signalosome complex subunit 1 (Arabidopsis thaliana (Mouse-ear cress)), P45432 (parent)
chain: MERDEEASGPMMEMCTNGGEETSNRRPIISGEPLDIEAYAALYKGRTKIMRLLFIANHCGGNHALQFDALRMAYDEIKKGENTQLFREVVNKIGNRLGEKYGMDLAWCEAVDRRAEQKKVKLENELSSYRTNLIKESIRMGYNDFGDFYYACGMLGDAFKNYIRTRDYCTTTKHIIHMCMNAILVSIEMGQFTHVTSYVNKAEQNPETLEPMVNAKLRCASGLAHLELKKYKLAARKFLDVNPELGNSYNEVIAPQDIATYGGLCALASFDRSELKQKVIDNINFRNFLELVPDVRELINDFYSSRYASCLEYLASLKSNLLLDIHLHDHVDTLYDQIRKKALIQYTLPFVSVDLSRMADAFKTSVSGLEKELEALITDNQIQARIDSHNKILYARHADQRNATFQKVLQMGNEFDRDVRAMLLRANLLKHEYHARSARKL
partner: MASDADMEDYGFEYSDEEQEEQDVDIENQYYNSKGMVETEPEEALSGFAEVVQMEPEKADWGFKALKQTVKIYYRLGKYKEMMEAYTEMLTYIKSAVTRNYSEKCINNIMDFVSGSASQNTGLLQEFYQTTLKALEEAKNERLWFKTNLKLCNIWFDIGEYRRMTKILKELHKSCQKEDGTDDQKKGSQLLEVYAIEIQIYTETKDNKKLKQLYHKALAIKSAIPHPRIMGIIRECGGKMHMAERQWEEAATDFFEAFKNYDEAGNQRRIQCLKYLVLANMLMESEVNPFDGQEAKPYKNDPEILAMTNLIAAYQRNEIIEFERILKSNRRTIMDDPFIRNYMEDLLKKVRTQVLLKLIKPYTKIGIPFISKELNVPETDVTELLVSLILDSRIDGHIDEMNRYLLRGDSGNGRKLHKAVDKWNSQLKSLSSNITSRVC
B2: COP9 signalosome complex subunit 1 (Arabidopsis thaliana (Mouse-ear cress)), P45432 (parent)
chain: B1 chain
partner: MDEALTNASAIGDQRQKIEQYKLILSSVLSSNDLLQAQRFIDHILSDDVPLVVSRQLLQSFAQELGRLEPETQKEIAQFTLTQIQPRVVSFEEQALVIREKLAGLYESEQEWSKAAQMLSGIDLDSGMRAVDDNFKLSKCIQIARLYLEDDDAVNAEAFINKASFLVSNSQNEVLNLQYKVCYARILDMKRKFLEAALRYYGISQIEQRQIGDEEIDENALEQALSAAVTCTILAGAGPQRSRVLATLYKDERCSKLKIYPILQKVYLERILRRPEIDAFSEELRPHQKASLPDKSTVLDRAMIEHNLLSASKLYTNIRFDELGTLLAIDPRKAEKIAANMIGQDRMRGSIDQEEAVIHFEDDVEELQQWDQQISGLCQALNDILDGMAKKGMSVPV

Variants of: B1
Conditions: with csn2_arath CSN2, Q8W207

effect of a mutation on the interaction	Variant
disrupting interaction	MERDEEASGPMMEMCTNGGEETSNRRPIISGEPLDIEAYAALYKGRTKIMRLLFIANHCGGNHALQFDALRMAYDEIKKGENTQLFREVVNKIGNRLGEKYGMDLAWCEAVDRRAEQKKVKLENELSSYRTNLIKESIRMGYNDFGDFYYACGMLGDAFKNYIRTRDYCTTTKHIIHMCMNAILVSIEMGQFTHVTSYVNKAEQNPETLEPMVNAKLRCASRLAHLELKKYKLAARKFLDVNPELGNSYNEVIAPQDIATYGGLCALASFDRSELKQKVIDNINFRNFLELVPDVRELINDFYSSRYASCLEYLASLKSNLLLDIHLHDHVDTLYDQIRKKALIQYTLPFVSVDLSRMADAFKTSVSGLEKELEALITDNQIQARIDSHNKILYARHADQRNATFQKVLQMGNEFDRDVRAMLLRANLLKHEYHARSARKL [G222R]

Variants of: B2
Conditions: with csn4_arath CSN4, Q8L5U0

effect of a mutation on the interaction	Variant
disrupting interaction	MERDEEASGPMMEMCTNGGEETSNRRPIISGEPLDIEAYAALYKGRTKIMRLLFIANHCGGNHALQFDALRMAYDEIKKGENTQLFREVVNKIGNRLGEKYGMDLAWCEAVDRRAEQKKVKLENELSSYRTNLIKESIRMGYNDFGDFYYACGMLGDAFKNYIRTRDYCTTTKHIIHMCMNAILVSIEMGQFTHVTSYVNKAEQNPETLEPMVNAKLRCASRLAHLELKKYKLAARKFLDVNPELGNSYNEVIAPQDIATYGGLCALASFDRSELKQKVIDNINFRNFLELVPDVRELINDFYSSRYASCLEYLASLKSNLLLDIHLHDHVDTLYDQIRKKALIQYTLPFVSVDLSRMADAFKTSVSGLEKELEALITDNQIQARIDSHNKILYARHADQRNATFQKVLQMGNEFDRDVRAMLLRANLLKHEYHARSARKL [G222R]
